In patent publication US8088892B2, “Inhibitors of proteins from the Rho-GEF family” (Centre National de la Recherche Scientifique (C.N.R.S.), priority 2002, dated 2012):

Assays:
Experiment in all cases: Binding specificity of aptamers in yeast
Design in all cases: key: +++^1 and +^1 represent respectively a full and a partial (see FIG. 1) binding capacity; +++^1 and +^1 represent respectively a full and a partial (see FIG. 1) binding capacity; −−^1 represents a lack of binding
PDZRhoGEF = settings: RhoGEF PDZRhoGEF
Source text: (§1) Trx represents the thioredoxin protein with no inserted peptide.
(§2) In order to identify specific inhibitors of TrioGEFD2, a recently developed strategy was used, this strategy being derived from the yeast two hybrid system, where the cDNA library of preys has been replaced by a combinatorial library of short peptides (20 amino acids) in fusion with the bacterial protein thioredoxin A (Colas et al., 1996). This strategy has been successfully used to isolate specific inhibitors of the cyclin-dependent kinases (Cdks), the cell cycle transcription factor E2F, or the viral HPV16 E6 oncoprotein and HBEV core protein (Colas et al., 1996; Butz et al., 2001; Fabrizzio et al., 1999; Geyer et al., 2000). The TrioGEFD2 bait was constructed as follows: plasmid pMTHATrio1848-2298 (Bellanger et al., 1998) was digested with EcoRI/XhoI and the insert cloned in pEG202EcoRI/XhoI to generate the bait pEG202TroGEFD2. Yeast strain EGY048 (Colas et al., 1996) was transformed with pEG202TrioGEFD2 and subsequently with the library of Thioredoxin constrained aptamers according to standard procedures (Ito et al., 1983). After transformation, cells were allowed to recover for 4 hours in galactose containing medium before plating on selective galactose medium. Of the 2×10^6 screened colonies, those growing in the selective medium were recovered and retested for interaction. […] Binding specificity was investigated by screening for interaction with the following baits: TrioDH2 (a.a. 1848-2096), TrioPH2 (a.a. 2107-2223), TrioGEFD1 (a.a. 1232-1629), Dbl (a.a. 498-826), Vav (ala. 172-598) (Zhang et al, 1994), GEFD2 domain of Kalirin (a.a. 1640-1980)(Penzes et al., 2001), p115RhoGEF (a.a. 391-870)(Wells et al, 2002) and PDZRhoGEF (a.a. 964-1362) (Fukuhara et al., 1999). None of these aptamers interacted with other RhoGEF members such as Dbl, Vav, and the RhoA-specific GEFs p115RhoGEF and PDZRhoGEF.

p115RhoGEF = biological target: T1, p115RhoGEF (Homo sapiens, UniProt Q92888); settings: RhoGEF p115RhoGEF
T1 construct: p115RhoGEF (a.a. 391-870); expressed in transfected cells; host or cells: yeast
T1 sequence (Q92888 391-870): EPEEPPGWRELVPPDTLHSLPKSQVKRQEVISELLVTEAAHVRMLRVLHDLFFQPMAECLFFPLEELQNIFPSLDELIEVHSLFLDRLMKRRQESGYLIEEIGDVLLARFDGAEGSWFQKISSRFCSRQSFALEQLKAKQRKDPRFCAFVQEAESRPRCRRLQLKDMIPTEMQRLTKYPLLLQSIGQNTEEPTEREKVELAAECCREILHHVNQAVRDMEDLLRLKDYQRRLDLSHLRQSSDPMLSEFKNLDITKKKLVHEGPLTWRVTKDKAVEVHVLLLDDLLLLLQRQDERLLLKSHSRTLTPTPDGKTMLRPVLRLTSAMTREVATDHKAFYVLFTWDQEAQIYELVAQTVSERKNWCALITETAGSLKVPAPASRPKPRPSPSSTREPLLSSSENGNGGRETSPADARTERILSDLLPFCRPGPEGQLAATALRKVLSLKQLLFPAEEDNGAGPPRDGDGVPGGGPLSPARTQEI
Source text: as §1, §2

Vav = settings: RhoGEF Vav
Source text: as §1, §2

Measured: Binding in yeast

B1: TRIAPα: aptamer of 154 amino acids: variable region of 42 amino acids inserted into the thioredoxin protein; tested as GST fusion (protein)
chain: MSDKIIHLTDDSFDTDVLKADGAILVDFWAEWCGPAREGADGAICGYNLATLVMLGPSERVFCPLCEPCSSDIYELMGPCKMIAPILDEIADEYQGKLTVAKLNIDQNPGTAPKYGIRGIPTLLLFKNGEVASATKVGALSKGQLKEFLDANLA
−−^1: all assays above
